Results on three molecules are retold here after patent US20040213788A1 (published 2004).

Assay [1] deals with T1, soluble human RANKL protein (human, UniProt O14788 140-317, limits assumed, biotinylated at a 20:1 molar ratio of NHS-biotin to protein (in the competition ELISA only)).
T1 construct: Soluble form; Biotinylated in the ELISA, unlabelled in the cell assays; also called shRANKL; sRANKL
T1 sequence (looked up): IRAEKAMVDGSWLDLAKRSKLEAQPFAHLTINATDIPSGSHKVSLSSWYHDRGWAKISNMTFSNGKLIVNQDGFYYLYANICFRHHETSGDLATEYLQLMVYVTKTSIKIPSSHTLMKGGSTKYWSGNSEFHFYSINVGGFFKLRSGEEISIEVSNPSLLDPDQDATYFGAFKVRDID
Description: competition ELISA: inhibition of biotinylated shRANKL (0.43 nM) binding to coated RANK-Fc. The source says:
(§1) A. A competition ELISA was established using a human RANK-Fc fusion protein coated on plastic and a biotinylated soluble human RANKL protein for detection in solution. The RANK-FC and RANKL proteins were produced in CHO cells and Pichia pastoris, respectively, and purified to >90% homogeneity. The shRANKL (soluble, human RANKL) protein was biotinylated at a 20:1 molar ratio of NHS-biotin to protein (Pierce, Rockford, Ill.) according to the manufacturer's specifications. 96-well ELISA plates were coated overnight at 4° C. with 50 ng/well ([…]) RANK-Fc in pH 9.6 carbonate-bicarbonate buffer. Plates were washed in pH 7.4 Tris-Saline buffer containing 0.1% Tween 20 and blocked for 2 h at RT in 1% BSA/PBS. Competitor proteins (RANK-Fc; death receptor 5 (DR5)-Fc; OPG-Fc; RANKL mAb 14F3) were diluted in 0.01% Tween 20/PBS and added to wells prior to the addition of biotinylated shRANKL (0.43 nM) and the combined samples were incubated for 2 hrs at room temperature. The amount of biotinylated shRANKL bound to coated RANK-Fc (+/−competitor) was measured using alkaline phosphatase conjugated streptavidin. The substrate for signal detection was 105 PNPP (Pierce Inc., Rockford, Ill.) and absorbence measured at 405 nm using a Spectra Max 340 plate reader.

For assay [2], the target named is T1, soluble human RANKL protein. Description: competition ELISA: soluble RANK-Fc inhibits biotinylated shRANKL (0.43 nM) binding to coated RANK-Fc.
Description: as §1
A general note: ELISA stands for enzyme-linked immunosorbent assay.

The target is the same in assay [3]. The assay can be described thus: cell-based or functional assay.
The target is the same in assay [4]. The assay can be described thus: not described; paragraph 32 names optical biosensor analysis for Kd.

The IC50 is the concentration at which inhibition is half-maximal. By Kd is commonly meant the constant that tells how readily two partners part at equilibrium.

B1: OPG-Fc (Fc fusion, UniProt O00300 22-201, looked up)
chain: ETFPPKYLHYDEETSHQLLCDKCPPGTYLKQHCTAKWKTVCAPCPDHYYTDSWHTSDECLYCSPVCKELQYVKQECNRTHNRVCECKEGRYLEIEFCLKHRSCPPGFGVVQAGTPERNTVCKRCPDGFFSNETSSKAPCRKHTNCSVFGLLLTQKGNATHDNICSGNSESTQKCGIDVTL
notes: also called osteoprotegerin-Fc; not shown: Fc part; not described
Turning to B1, the IC50 in assay [1] is about 0.5 nM.

B2: human RANK-Fc fusion protein (Fc fusion, UniProt Q9Y6Q6 30-212, looked up, not shown: a dimerising Fc or GST)
chain: IAPPCTSEKHYEHLGRCCNKCEPGKYMSSKCTTTSDSVCLPCGPDEYLDSWNEEDKCLLHKVCDTGKALVAVVAGNSTTPRRCACTAGYHWSQDCECCRRNTECAPGLGAQHPLQLNKDTVCKPCLAGYFSDAFSSTDKCRPWTNCTFLGKRVEHHGTEKSDAVCSSSLPARKPPNEPHVYLP
In the case of B2, in assay [2], the IC50 was about 6 nM. Moreover, the “IC50, formation of multinuclear cells (human monocyte osteoclastogenesis)” value in assay [3] is about 0.5 µg/mL.

B3: mouse monoclonal antibody 14F3 (antibody, V domains shown)
VH: EVQLVESGGDLVKPGGSLKLSCAASGFTFSRYGMSWVRQTPDKRLEWVATISSGGSYTYYPDSVKGRFTISRDNAKNTLYLQMSSLKSEDTAMYYCARLDGYNYRWYFDVWGTGTTVTVSS
VL: DIVMTQSHKFMSTSVGDRVSITCKASQDVSSAVAWYQQKPGQSPKLLIYSASYRYTGVPDRFTGSGSGTDFTFTISSVQAEDLAVYYCQQHYSSPRTFGGGTNLEIKR
notes: Whole mouse IgG2a/kappa purified from hybridoma; also called 14F3 mAb; RANKL mAb 14F3
As to B3, the half-maximal inhibitory concentration (IC50) in assay [1] is about 2 nM. In addition, in assay [3], the “IC50, formation of multinuclear cells (human monocyte osteoclastogenesis)” value was about 4 µg/mL. Besides, the Kd in assay [4] is about 0.1 nM.
